Here are results for one substance from PMC9371684.

Experiment [1] has as its target v5-tagged full-length GIGYF2 (1–1,320) (human). In words: proximity ligation.
The target is the same in experiment [2]. Kind of experiment: proximity ligation; cells cotransfected with v5-GIGYF2, HA-4EHP and FLAG-empty vector; fixed 24 h after transfection; PLA with v5 and HA antibodies.

Sequence of v5-tagged full-length GIGYF2 (1–1,320) (human) (Q6Y7W6 2-1299): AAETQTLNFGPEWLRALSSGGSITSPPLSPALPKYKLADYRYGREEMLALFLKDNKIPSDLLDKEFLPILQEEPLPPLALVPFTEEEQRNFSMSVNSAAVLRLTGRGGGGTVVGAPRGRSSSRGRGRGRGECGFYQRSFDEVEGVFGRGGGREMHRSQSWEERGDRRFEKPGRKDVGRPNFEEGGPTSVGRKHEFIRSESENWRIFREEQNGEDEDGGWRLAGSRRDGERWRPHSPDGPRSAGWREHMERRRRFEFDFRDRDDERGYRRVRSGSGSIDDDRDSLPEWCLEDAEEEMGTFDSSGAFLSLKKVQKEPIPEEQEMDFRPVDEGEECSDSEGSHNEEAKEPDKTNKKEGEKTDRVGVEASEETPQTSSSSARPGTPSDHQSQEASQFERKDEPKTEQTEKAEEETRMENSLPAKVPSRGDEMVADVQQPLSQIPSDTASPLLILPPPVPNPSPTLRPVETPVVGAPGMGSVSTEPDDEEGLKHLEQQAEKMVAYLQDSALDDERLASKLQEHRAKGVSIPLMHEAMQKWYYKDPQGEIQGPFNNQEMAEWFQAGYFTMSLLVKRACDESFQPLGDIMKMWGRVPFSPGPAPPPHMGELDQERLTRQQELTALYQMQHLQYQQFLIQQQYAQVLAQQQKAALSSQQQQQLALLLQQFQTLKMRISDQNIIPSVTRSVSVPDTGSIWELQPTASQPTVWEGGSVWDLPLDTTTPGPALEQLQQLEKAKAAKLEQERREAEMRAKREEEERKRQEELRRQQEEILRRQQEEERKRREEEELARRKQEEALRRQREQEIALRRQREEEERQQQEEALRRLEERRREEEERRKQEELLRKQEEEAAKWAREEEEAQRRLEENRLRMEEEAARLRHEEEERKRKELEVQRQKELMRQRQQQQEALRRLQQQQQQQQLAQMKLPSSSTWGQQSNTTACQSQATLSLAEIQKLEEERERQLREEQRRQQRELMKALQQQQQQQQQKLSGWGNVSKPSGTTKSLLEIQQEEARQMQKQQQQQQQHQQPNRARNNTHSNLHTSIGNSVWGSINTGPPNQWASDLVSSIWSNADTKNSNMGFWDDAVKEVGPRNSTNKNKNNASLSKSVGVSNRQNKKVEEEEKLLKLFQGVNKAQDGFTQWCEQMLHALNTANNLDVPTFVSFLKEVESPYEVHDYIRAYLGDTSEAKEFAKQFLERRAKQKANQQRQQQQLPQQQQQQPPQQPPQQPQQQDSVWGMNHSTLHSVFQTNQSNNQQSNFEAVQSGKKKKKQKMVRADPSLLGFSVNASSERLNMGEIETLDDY

As to “HA-tagged 4EHP (from UniProt O60573 1-245)”, the results for the PLA punctate per cell (punctate per cell) in experiment [1] and in experiment [2] were 61 and 19.8, respectively.
